Test results published in the Human Domainome abundance scans (Beltran et al. 2025).
± gives the uncertainty stated by the source.

B1: Tumor protein 63, residues 545 to 610; numbered along this chain, Q9H3D4 (parent)
chain: TDCSIVSFLARLGCSSCLDYFTTQGLTTIYQIEHYSMDDLASLKIPEQFRHAIWKGILDHRQLHEF

Variants of: B1
Test: abundance fitness (aPCA) (normalised: wild type 0, dead -1); higher = more abundant; growth selection in yeast, the domain comes from the species named
Settings: Homo sapiens

Variant | abundance fitness
TDCSIVSFLARLGCSSCLDYFTTQFLTTIYQIEHYSMDDLASLKIPEQFRHAIWKGILDHRQLHEF | -0.549 ± 0.046
TDCSIVSFLARLGCSSCLDYFTTQGLHTIYQIEHYSMDDLASLKIPEQFRHAIWKGILDHRQLHEF | -0.005 ± 0.061
TDCSIVSFLARLGCSSCLDYFTTQGLTTIYQIEHYSMDDLASLKIPEQSRHAIWKGILDHRQLHEF | -0.026 ± 0.026
TDCSIVSFLARLGCSSCLDYFTTQGLTTEYQIEHYSMDDLASLKIPEQFRHAIWKGILDHRQLHEF | -0.366 ± 0.036
TDCSIVSFLARLGCSSCLDYFTTQGLTTIYQIEHYSMDDLASLKIPEQFRHAILKGILDHRQLHEF | 0.031 ± 0.067
TDCSIVSFLARLGCDSCLDYFTTQGLTTIYQIEHYSMDDLASLKIPEQFRHAIWKGILDHRQLHEF | -0.064 ± 0.055
TDCSIVSFLARLGCSGCLDYFTTQGLTTIYQIEHYSMDDLASLKIPEQFRHAIWKGILDHRQLHEF | -0.023 ± 0.019
TDCGIVSFLARLGCSSCLDYFTTQGLTTIYQIEHYSMDDLASLKIPEQFRHAIWKGILDHRQLHEF | -0.104 ± 0.019
QDCSIVSFLARLGCSSCLDYFTTQGLTTIYQIEHYSMDDLASLKIPEQFRHAIWKGILDHRQLHEF | -0.033 ± 0.065
TDCSIVSFLARLGCSSCLDYFTTQGLTTIYQIEHFSMDDLASLKIPEQFRHAIWKGILDHRQLHEF | -0.012 ± 0.038
TDCSIVSFLARLGCSSCLDYFTTQGLTTIYQIEHYSMDDLASLKIPEQFRHAMWKGILDHRQLHEF | -0.403 ± 0.046
TDCSIVSFLAMLGCSSCLDYFTTQGLTTIYQIEHYSMDDLASLKIPEQFRHAIWKGILDHRQLHEF | -0.111 ± 0.028
TDCDIVSFLARLGCSSCLDYFTTQGLTTIYQIEHYSMDDLASLKIPEQFRHAIWKGILDHRQLHEF | -0.05 ± 0.027
TDCSIVSFLARLGCSSCLDYFTTQGLTTIYQIEHYSMDDLASLKYPEQFRHAIWKGILDHRQLHEF | -0.821 ± 0.09
TDCSIVSFLARLGCSSCLDYFTTQGLTTIYQIEHYSMDDLASLKIPEQFRHAIWKGILDHRQLPEF | -0.02 ± 0.031
TDCSIVSGLARLGCSSCLDYFTTQGLTTIYQIEHYSMDDLASLKIPEQFRHAIWKGILDHRQLHEF | -1.01 ± 0.084
TDCSIVSFLARLGCSSCLDYFTTQGLTTIYQIEHYSMDDLASLSIPEQFRHAIWKGILDHRQLHEF | -0.015 ± 0.022
TDCSIVSFLARLGCSSCLDYFTTQGLTTIYQIEHYSMDDIASLKIPEQFRHAIWKGILDHRQLHEF | -0.037 ± 0.04
TDCSIVSFLARLGCSSCLDYFTTQGLTTIYQIEHYSMDDLASLKIPEQFRHAIAKGILDHRQLHEF | -0.065 ± 0.086
TDCSIVSFLARLGCSSCLDYFTTQGLTTIYQIEHESMDDLASLKIPEQFRHAIWKGILDHRQLHEF | -0.706 ± 0.04
TDCSIVSFLARLGCSSCLDYFTTQLLTTIYQIEHYSMDDLASLKIPEQFRHAIWKGILDHRQLHEF | -0.582 ± 0.03

Variant | abundance fitness
TDCSIVSFLARLGCSSCLDYFTTQGLTTIYQIEHYSMDDLASLKIPEQFRHAIWKGELDHRQLHEF | -0.887 ± 0.11
TDCSIVSFLARLGCSSCLDYFTTQGLTTIQQIEHYSMDDLASLKIPEQFRHAIWKGILDHRQLHEF | 0.029 ± 0.041
TDCSIVSFLARLGCSSCLDYFTTQGLTTIYQIEHYSMDDLASLKIPQQFRHAIWKGILDHRQLHEF | -0.004 ± 0.037
TDCSIVSFLARLGCSSCLDYFTTQGLTTIYQIEHYSMDDLNSLKIPEQFRHAIWKGILDHRQLHEF | -0.024 ± 0.091
TDCSIVSFLARLGCSSCLDYFTTQGLTTIYQIEHYSMDDLASLKIREQFRHAIWKGILDHRQLHEF | -0.66 ± 0.031
TDCSIVSFLARLGCSSCLKYFTTQGLTTIYQIEHYSMDDLASLKIPEQFRHAIWKGILDHRQLHEF | -0.024 ± 0.031
TDCSIVSFLARLDCSSCLDYFTTQGLTTIYQIEHYSMDDLASLKIPEQFRHAIWKGILDHRQLHEF | 0.004 ± 0.047
TDCSIVSFLARLGCSSCLDYFTTQGLTTIYQIEHYSMDDLASLKIPEQFRHAIIKGILDHRQLHEF | -0.028 ± 0.14
TDCSIVSFLFRLGCSSCLDYFTTQGLTTIYQIEHYSMDDLASLKIPEQFRHAIWKGILDHRQLHEF | -0.167 ± 0.028
TDCSIVSFLARLGCSSCLDYFTTQGLTTIYQIEHYSMDDLASLKIWEQFRHAIWKGILDHRQLHEF | -1.1 ± 0.26
TDCSIVSFLARLGCSSCLDYFTTQGLTTIYQIEHYSMDDLASLKIPLQFRHAIWKGILDHRQLHEF | -0.022 ± 0.029
TDCSIVSFLARLGCSSCLDQFTTQGLTTIYQIEHYSMDDLASLKIPEQFRHAIWKGILDHRQLHEF | -0.09 ± 0.049
TDCSIVSFLARLGCSSCLDYFTTQGLTTIYQIEHYSMDDLASLKIPEQFRHAIWKGIKDHRQLHEF | -0.001 ± 0.043
TDCSIVSFLARLRCSSCLDYFTTQGLTTIYQIEHYSMDDLASLKIPEQFRHAIWKGILDHRQLHEF | -0.077 ± 0.024
TDCSIVSFLARLGCSSCLDYFTTQGLTTIYQIEHYSMDDLASLKIPEQFRHAIWNGILDHRQLHEF | -0.038 ± 0.029
TDCSIVSFLARLGCSSCLAYFTTQGLTTIYQIEHYSMDDLASLKIPEQFRHAIWKGILDHRQLHEF | -0.05 ± 0.027
TDCSIVSFLARLGCSSCLDYFTTQGHTTIYQIEHYSMDDLASLKIPEQFRHAIWKGILDHRQLHEF | -0.225 ± 0.04
TDCSIVSFLARLGCSSCLDYFTTQGLTTIYQIEHYSMDDLASLKIPEQFRHAIWKGILDHRQWHEF | -0.054 ± 0.032
TDCSIVSFNARLGCSSCLDYFTTQGLTTIYQIEHYSMDDLASLKIPEQFRHAIWKGILDHRQLHEF | -0.814 ± 0.14
TDCSIVSFLARLGCSSCLDYFTTQGLTTIYQIEHYSMDDLASLKIPEKFRHAIWKGILDHRQLHEF | -0.015 ± 0.036
